Experimental data as given in patent publication US20220324969A1 (MYTHIC THERAPEUTICS, published 2022).

These binders were tested against CD33 (Sino Biological, Cat #12238-H08H) (UniProt P20138 18-259) (assay: BLI, IgG captured on anti-human Fc sensor, 50 nM CD33, pH 7.4 vs pH 5.4).
Chain of CD33 (Sino Biological, Cat #12238-H08H) (P20138 18-259 limits assumed): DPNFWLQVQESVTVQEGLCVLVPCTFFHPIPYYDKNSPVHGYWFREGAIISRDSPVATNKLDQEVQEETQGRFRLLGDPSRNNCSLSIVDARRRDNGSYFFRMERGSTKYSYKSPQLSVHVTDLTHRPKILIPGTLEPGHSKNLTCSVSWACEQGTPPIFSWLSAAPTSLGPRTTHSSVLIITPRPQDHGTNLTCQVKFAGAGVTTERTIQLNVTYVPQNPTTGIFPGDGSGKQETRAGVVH

| binding result | Binder |
| --- | --- |
| binds | MYT1166 (antibody, V domains shown, IgG; gemtuzumab VH combination #5 (S32H+Y52H)) VH: EVQLVQSGAEVKKPGSSVKVSCKASGYTITDHNIHWVRQAPGQSLEWIGYIHPYNGGTDYNQKFKNRATLTVDNPTNTAYMELSSLRSEDTDFYYCVNGNPWLAYWGQGTLVTVSS VL: DIQLTQSPSTLSASVGDRVTITCRASESLDNYGIRFLTWFQQKPGKAPKLLMYAASNQGSGVPSRFSGSGSGTEFTLTISSLQPDDFATYYCQQTKEVPWSFGQGTKVEVK |
| binds | MYT1590 (antibody, V domains shown, IgG; gemtuzumab VL variant #1 (R24H)) VH: EVQLVQSGAEVKKPGSSVKVSCKASGYTITDSNIHWVRQAPGQSLEWIGYIYPYNGGTDYNQKFKNRATLTVDNPTNTAYMELSSLRSEDTDFYYCVNGNPWLAYWGQGTLVTVSS VL: DIQLTQSPSTLSASVGDRVTITCHASESLDNYGIRFLTWFQQKPGKAPKLLMYAASNQGSGVPSRFSGSGSGTEFTLTISSLQPDDFATYYCQQTKEVPWSFGQGTKVEVK |
| binds | MYT1180 (antibody, V domains shown, IgG; gemtuzumab VH combination #19 (S32H+Y54H+G57H)) VH: EVQLVQSGAEVKKPGSSVKVSCKASGYTITDHNIHWVRQAPGQSLEWIGYIYPHNGHTDYNQKFKNRATLTVDNPTNTAYMELSSLRSEDTDFYYCVNGNPWLAYWGQGTLVTVSS VL: DIQLTQSPSTLSASVGDRVTITCRASESLDNYGIRFLTWFQQKPGKAPKLLMYAASNQGSGVPSRFSGSGSGTEFTLTISSLQPDDFATYYCQQTKEVPWSFGQGTKVEVK |
| binds | MYT1597 (antibody, V domains shown, IgG; gemtuzumab VL variant #8 (N31H)) VH: EVQLVQSGAEVKKPGSSVKVSCKASGYTITDSNIHWVRQAPGQSLEWIGYIYPYNGGTDYNQKFKNRATLTVDNPTNTAYMELSSLRSEDTDFYYCVNGNPWLAYWGQGTLVTVSS VL: DIQLTQSPSTLSASVGDRVTITCRASESLDHYGIRFLTWFQQKPGKAPKLLMYAASNQGSGVPSRFSGSGSGTEFTLTISSLQPDDFATYYCQQTKEVPWSFGQGTKVEVK |
| binds | MYT1171 (antibody, V domains shown, IgG; gemtuzumab VH combination #10 (Y54H+G57H)) VH: EVQLVQSGAEVKKPGSSVKVSCKASGYTITDSNIHWVRQAPGQSLEWIGYIYPHNGHTDYNQKFKNRATLTVDNPTNTAYMELSSLRSEDTDFYYCVNGNPWLAYWGQGTLVTVSS VL: DIQLTQSPSTLSASVGDRVTITCRASESLDNYGIRFLTWFQQKPGKAPKLLMYAASNQGSGVPSRFSGSGSGTEFTLTISSLQPDDFATYYCQQTKEVPWSFGQGTKVEVK |
| binds | MYT1170 (antibody, V domains shown, IgG; gemtuzumab VH combination #9 (Y52H+G57H)) VH: EVQLVQSGAEVKKPGSSVKVSCKASGYTITDSNIHWVRQAPGQSLEWIGYIHPYNGHTDYNQKFKNRATLTVDNPTNTAYMELSSLRSEDTDFYYCVNGNPWLAYWGQGTLVTVSS VL: DIQLTQSPSTLSASVGDRVTITCRASESLDNYGIRFLTWFQQKPGKAPKLLMYAASNQGSGVPSRFSGSGSGTEFTLTISSLQPDDFATYYCQQTKEVPWSFGQGTKVEVK |
| binds | MYT1178 (antibody, V domains shown, IgG; gemtuzumab VH combination #17 (S32H+Y52H+Y54H)) VH: EVQLVQSGAEVKKPGSSVKVSCKASGYTITDHNIHWVRQAPGQSLEWIGYIHPHNGGTDYNQKFKNRATLTVDNPTNTAYMELSSLRSEDTDFYYCVNGNPWLAYWGQGTLVTVSS VL: DIQLTQSPSTLSASVGDRVTITCRASESLDNYGIRFLTWFQQKPGKAPKLLMYAASNQGSGVPSRFSGSGSGTEFTLTISSLQPDDFATYYCQQTKEVPWSFGQGTKVEVK |
| binds | MYT1168 (antibody, V domains shown, IgG; gemtuzumab VH combination #7 (S32H+G57H)) VH: EVQLVQSGAEVKKPGSSVKVSCKASGYTITDHNIHWVRQAPGQSLEWIGYIYPYNGHTDYNQKFKNRATLTVDNPTNTAYMELSSLRSEDTDFYYCVNGNPWLAYWGQGTLVTVSS VL: DIQLTQSPSTLSASVGDRVTITCRASESLDNYGIRFLTWFQQKPGKAPKLLMYAASNQGSGVPSRFSGSGSGTEFTLTISSLQPDDFATYYCQQTKEVPWSFGQGTKVEVK |
| binds | MYT1598 (antibody, V domains shown, IgG; gemtuzumab VL variant #9 (Y32H)) VH: EVQLVQSGAEVKKPGSSVKVSCKASGYTITDSNIHWVRQAPGQSLEWIGYIYPYNGGTDYNQKFKNRATLTVDNPTNTAYMELSSLRSEDTDFYYCVNGNPWLAYWGQGTLVTVSS VL: DIQLTQSPSTLSASVGDRVTITCRASESLDNHGIRFLTWFQQKPGKAPKLLMYAASNQGSGVPSRFSGSGSGTEFTLTISSLQPDDFATYYCQQTKEVPWSFGQGTKVEVK |
| binds | MYT1596 (antibody, V domains shown, IgG; gemtuzumab VL variant #7 (D30H)) VH: EVQLVQSGAEVKKPGSSVKVSCKASGYTITDSNIHWVRQAPGQSLEWIGYIYPYNGGTDYNQKFKNRATLTVDNPTNTAYMELSSLRSEDTDFYYCVNGNPWLAYWGQGTLVTVSS VL: DIQLTQSPSTLSASVGDRVTITCRASESLHNYGIRFLTWFQQKPGKAPKLLMYAASNQGSGVPSRFSGSGSGTEFTLTISSLQPDDFATYYCQQTKEVPWSFGQGTKVEVK |
| binds | MYT1602 (antibody, V domains shown, IgG; gemtuzumab VL variant #13 (F36H)) VH: EVQLVQSGAEVKKPGSSVKVSCKASGYTITDSNIHWVRQAPGQSLEWIGYIYPYNGGTDYNQKFKNRATLTVDNPTNTAYMELSSLRSEDTDFYYCVNGNPWLAYWGQGTLVTVSS VL: DIQLTQSPSTLSASVGDRVTITCRASESLDNYGIRHLTWFQQKPGKAPKLLMYAASNQGSGVPSRFSGSGSGTEFTLTISSLQPDDFATYYCQQTKEVPWSFGQGTKVEVK |
| binds | MYT1169 (antibody, V domains shown, IgG; gemtuzumab VH combination #8 (Y52H+Y54H)) VH: EVQLVQSGAEVKKPGSSVKVSCKASGYTITDSNIHWVRQAPGQSLEWIGYIHPHNGGTDYNQKFKNRATLTVDNPTNTAYMELSSLRSEDTDFYYCVNGNPWLAYWGQGTLVTVSS VL: DIQLTQSPSTLSASVGDRVTITCRASESLDNYGIRFLTWFQQKPGKAPKLLMYAASNQGSGVPSRFSGSGSGTEFTLTISSLQPDDFATYYCQQTKEVPWSFGQGTKVEVK |
| binds | MYT1177 (antibody, V domains shown, IgG; gemtuzumab VH combination #16 (I29H+Y54H+G57H)) VH: EVQLVQSGAEVKKPGSSVKVSCKASGYTHTDSNIHWVRQAPGQSLEWIGYIYPHNGHTDYNQKFKNRATLTVDNPTNTAYMELSSLRSEDTDFYYCVNGNPWLAYWGQGTLVTVSS VL: DIQLTQSPSTLSASVGDRVTITCRASESLDNYGIRFLTWFQQKPGKAPKLLMYAASNQGSGVPSRFSGSGSGTEFTLTISSLQPDDFATYYCQQTKEVPWSFGQGTKVEVK |
| binds | MYT1599 (antibody, V domains shown, IgG; gemtuzumab VL variant #10 (G33H)) VH: EVQLVQSGAEVKKPGSSVKVSCKASGYTITDSNIHWVRQAPGQSLEWIGYIYPYNGGTDYNQKFKNRATLTVDNPTNTAYMELSSLRSEDTDFYYCVNGNPWLAYWGQGTLVTVSS VL: DIQLTQSPSTLSASVGDRVTITCRASESLDNYHIRFLTWFQQKPGKAPKLLMYAASNQGSGVPSRFSGSGSGTEFTLTISSLQPDDFATYYCQQTKEVPWSFGQGTKVEVK |
| binds | MYT1167 (antibody, V domains shown, IgG; gemtuzumab VH combination #6 (S32H+Y54H)) VH: EVQLVQSGAEVKKPGSSVKVSCKASGYTITDHNIHWVRQAPGQSLEWIGYIYPHNGGTDYNQKFKNRATLTVDNPTNTAYMELSSLRSEDTDFYYCVNGNPWLAYWGQGTLVTVSS VL: DIQLTQSPSTLSASVGDRVTITCRASESLDNYGIRFLTWFQQKPGKAPKLLMYAASNQGSGVPSRFSGSGSGTEFTLTISSLQPDDFATYYCQQTKEVPWSFGQGTKVEVK |
| binds | MYT1594 (antibody, V domains shown, IgG; gemtuzumab VL variant #5 (S28H)) VH: EVQLVQSGAEVKKPGSSVKVSCKASGYTITDSNIHWVRQAPGQSLEWIGYIYPYNGGTDYNQKFKNRATLTVDNPTNTAYMELSSLRSEDTDFYYCVNGNPWLAYWGQGTLVTVSS VL: DIQLTQSPSTLSASVGDRVTITCRASEHLDNYGIRFLTWFQQKPGKAPKLLMYAASNQGSGVPSRFSGSGSGTEFTLTISSLQPDDFATYYCQQTKEVPWSFGQGTKVEVK |
| binds | MYT1176 (antibody, V domains shown, IgG; gemtuzumab VH combination #15 (I29H+Y52H+G57H)) VH: EVQLVQSGAEVKKPGSSVKVSCKASGYTHTDSNIHWVRQAPGQSLEWIGYIHPYNGHTDYNQKFKNRATLTVDNPTNTAYMELSSLRSEDTDFYYCVNGNPWLAYWGQGTLVTVSS VL: DIQLTQSPSTLSASVGDRVTITCRASESLDNYGIRFLTWFQQKPGKAPKLLMYAASNQGSGVPSRFSGSGSGTEFTLTISSLQPDDFATYYCQQTKEVPWSFGQGTKVEVK |
| binds | MYT1174 (antibody, V domains shown, IgG; gemtuzumab VH combination #13 (I29H+S32H+G57H)) VH: EVQLVQSGAEVKKPGSSVKVSCKASGYTHTDHNIHWVRQAPGQSLEWIGYIYPYNGHTDYNQKFKNRATLTVDNPTNTAYMELSSLRSEDTDFYYCVNGNPWLAYWGQGTLVTVSS VL: DIQLTQSPSTLSASVGDRVTITCRASESLDNYGIRFLTWFQQKPGKAPKLLMYAASNQGSGVPSRFSGSGSGTEFTLTISSLQPDDFATYYCQQTKEVPWSFGQGTKVEVK |
| binds | MYT1181 (antibody, V domains shown, IgG; gemtuzumab VH combination #20 (Y52H+Y54H+G57H)) VH: EVQLVQSGAEVKKPGSSVKVSCKASGYTITDSNIHWVRQAPGQSLEWIGYIHPHNGHTDYNQKFKNRATLTVDNPTNTAYMELSSLRSEDTDFYYCVNGNPWLAYWGQGTLVTVSS VL: DIQLTQSPSTLSASVGDRVTITCRASESLDNYGIRFLTWFQQKPGKAPKLLMYAASNQGSGVPSRFSGSGSGTEFTLTISSLQPDDFATYYCQQTKEVPWSFGQGTKVEVK |
| binds | MYT1601 (antibody, V domains shown, IgG; gemtuzumab VL variant #12 (R35H)) VH: EVQLVQSGAEVKKPGSSVKVSCKASGYTITDSNIHWVRQAPGQSLEWIGYIYPYNGGTDYNQKFKNRATLTVDNPTNTAYMELSSLRSEDTDFYYCVNGNPWLAYWGQGTLVTVSS VL: DIQLTQSPSTLSASVGDRVTITCRASESLDNYGIHFLTWFQQKPGKAPKLLMYAASNQGSGVPSRFSGSGSGTEFTLTISSLQPDDFATYYCQQTKEVPWSFGQGTKVEVK |
| binds | MYT1593 (antibody, V domains shown, IgG; gemtuzumab VL variant #4 (E27H)) VH: EVQLVQSGAEVKKPGSSVKVSCKASGYTITDSNIHWVRQAPGQSLEWIGYIYPYNGGTDYNQKFKNRATLTVDNPTNTAYMELSSLRSEDTDFYYCVNGNPWLAYWGQGTLVTVSS VL: DIQLTQSPSTLSASVGDRVTITCRASHSLDNYGIRFLTWFQQKPGKAPKLLMYAASNQGSGVPSRFSGSGSGTEFTLTISSLQPDDFATYYCQQTKEVPWSFGQGTKVEVK |
| binds | MYT1179 (antibody, V domains shown, IgG; gemtuzumab VH combination #18 (S32H+Y52H+G57H)) VH: EVQLVQSGAEVKKPGSSVKVSCKASGYTITDHNIHWVRQAPGQSLEWIGYIHPYNGHTDYNQKFKNRATLTVDNPTNTAYMELSSLRSEDTDFYYCVNGNPWLAYWGQGTLVTVSS VL: DIQLTQSPSTLSASVGDRVTITCRASESLDNYGIRFLTWFQQKPGKAPKLLMYAASNQGSGVPSRFSGSGSGTEFTLTISSLQPDDFATYYCQQTKEVPWSFGQGTKVEVK |
